Source: patent US20200299389A1 (AP BIOSCIENCES, published 2020)

Experiments:
murine PD-L1 = molecular target: T1, murine PD-L1 (murine, UniProt Q9EP73 19-238, limits assumed); experiment: not described
T1 construct: also called rodent PD-L1

[1] = molecular target: recombinant PD-L1 protein (UniProt Q9NZQ7 19-238, limits assumed); experiment: direct ELISA on coated recombinant PD-L1, anti-human F(ab')2-HRP detection
Chain of recombinant PD-L1 protein (Q9NZQ7 19-238 limits assumed): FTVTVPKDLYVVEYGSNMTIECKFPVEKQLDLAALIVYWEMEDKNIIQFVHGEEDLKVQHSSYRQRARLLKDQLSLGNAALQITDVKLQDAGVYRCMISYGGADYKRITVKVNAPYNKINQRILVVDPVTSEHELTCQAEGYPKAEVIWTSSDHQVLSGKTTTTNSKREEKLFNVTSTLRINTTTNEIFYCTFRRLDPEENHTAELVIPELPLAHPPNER

T1 sequence (Q9EP73 19-238 limits assumed): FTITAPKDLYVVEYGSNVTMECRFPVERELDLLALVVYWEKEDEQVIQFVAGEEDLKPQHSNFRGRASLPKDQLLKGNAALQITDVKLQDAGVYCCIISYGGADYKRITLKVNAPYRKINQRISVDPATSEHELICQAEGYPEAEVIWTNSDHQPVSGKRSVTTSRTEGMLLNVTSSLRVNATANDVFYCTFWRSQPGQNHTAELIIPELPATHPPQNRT

B1: anti-PD-L1 antibody clone 6 (antibody, V domains shown)
VH: QVQLVQSGAEVKKPGSSVKVSCKASGGTFRRYSISWVRQAPGQGLEWMGGIIPVFGAAKYAQKFQGRVTITADEFTSTAYMELSSLTSEDTAVYYCALSGDSDAFDIWGQGTMVTVSS
VL: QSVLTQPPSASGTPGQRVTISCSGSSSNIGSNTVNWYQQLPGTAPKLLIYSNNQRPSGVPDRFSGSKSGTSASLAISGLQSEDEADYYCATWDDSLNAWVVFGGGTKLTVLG
notes: also called PD-L1-Clone 6; anti-PD-L1 clone 6 antibody
Murine PD-L1
  binding result: no binding
[1]
  EC50: 0.1 nM
